Data reported in patent publication US20230212305A1 (published 2023).

How the values were obtained:
[1] = target: T1, human ABCG2 (human, UniProt Q9UNQ0 1-655); test: flow cytometry (FACS) on 293T_ABCG2_OX cells
T1 construct: also called hG2; KPG2
T1 sequence: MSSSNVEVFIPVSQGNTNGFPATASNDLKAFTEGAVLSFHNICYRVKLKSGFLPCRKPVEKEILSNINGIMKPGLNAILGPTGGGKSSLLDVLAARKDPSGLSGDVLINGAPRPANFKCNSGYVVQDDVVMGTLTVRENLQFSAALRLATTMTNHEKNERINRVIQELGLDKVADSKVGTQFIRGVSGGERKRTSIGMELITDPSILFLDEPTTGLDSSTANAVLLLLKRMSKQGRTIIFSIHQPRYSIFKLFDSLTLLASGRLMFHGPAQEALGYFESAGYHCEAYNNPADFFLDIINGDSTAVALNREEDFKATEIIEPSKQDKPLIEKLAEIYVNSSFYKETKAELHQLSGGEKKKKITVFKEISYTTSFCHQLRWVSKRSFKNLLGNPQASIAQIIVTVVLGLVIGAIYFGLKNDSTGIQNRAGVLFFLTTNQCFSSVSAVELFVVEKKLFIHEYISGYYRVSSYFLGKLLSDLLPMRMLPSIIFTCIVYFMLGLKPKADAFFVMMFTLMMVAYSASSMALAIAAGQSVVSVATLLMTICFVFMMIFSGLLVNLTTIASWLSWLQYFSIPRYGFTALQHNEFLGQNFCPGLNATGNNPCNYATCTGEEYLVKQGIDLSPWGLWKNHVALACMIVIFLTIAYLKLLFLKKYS

[2] = target: T2, cynomolgus ABCG2 (Macaca fascicularis) (Macaca fascicularis (cynomolgus), UniProt Q5MB13 1-654 (rhesus entry)); test: flow cytometry on cells expressing cynomolgus ABCG2; paragraph 395: non-significant binding = -
T2 construct: also called cABCG2
T2 sequence: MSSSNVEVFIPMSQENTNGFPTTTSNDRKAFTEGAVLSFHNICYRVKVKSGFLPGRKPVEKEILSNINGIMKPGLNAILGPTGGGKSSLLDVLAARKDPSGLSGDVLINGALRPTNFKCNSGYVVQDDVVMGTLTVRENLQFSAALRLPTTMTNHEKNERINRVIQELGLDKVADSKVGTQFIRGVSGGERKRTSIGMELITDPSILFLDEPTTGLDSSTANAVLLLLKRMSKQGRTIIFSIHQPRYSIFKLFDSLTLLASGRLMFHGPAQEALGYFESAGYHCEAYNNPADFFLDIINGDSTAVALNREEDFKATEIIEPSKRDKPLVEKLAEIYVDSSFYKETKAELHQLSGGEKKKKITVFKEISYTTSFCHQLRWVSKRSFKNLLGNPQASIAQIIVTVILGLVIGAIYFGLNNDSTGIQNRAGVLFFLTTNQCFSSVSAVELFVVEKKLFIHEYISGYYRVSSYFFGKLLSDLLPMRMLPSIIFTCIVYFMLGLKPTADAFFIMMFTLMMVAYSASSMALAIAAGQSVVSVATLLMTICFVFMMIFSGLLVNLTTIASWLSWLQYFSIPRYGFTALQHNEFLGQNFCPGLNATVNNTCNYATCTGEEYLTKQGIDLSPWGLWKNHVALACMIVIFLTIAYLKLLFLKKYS

B1: G2.256 mouse (antibody, human IgG1, V domains shown)
VH: EVQLQQSGPELVKPGASLKISCKTFGYSFTGYYMHWVKQSPEKSLEWIGKIVPSTGGTTYNQKFKAKATLTVDKSSFTAYMQLKSLTSEDSAVYYCAREKVYGYDVYYFDYWGQGTTLTVSS
VL: DIVMSQSPATLSVTPGDRVSLSCRASQSISDYLHWYQQKSHESPRLLIKYASQSISGIPSRFSGSGSGSDFTLSINSVEPEDVGVYYCQNGHSFPWTFGGGTKLEIK
notes: Variable regions cloned onto human IgG1 constant heavy chain and human kappa constant light chain
Question: Does B1 bind [1]?
Answer: Result: binds

Question: Does B1 bind [2]?
Answer: Result: no binding
